Results on 2 molecules are retold here after patent US20060263802A1.

Assay [1] deals with linear peptide … (rabies virus strain ERA). Nature of the assay: PEPSCAN ELISA, linear peptide, antibody 10 µg/ml. On the technique in general: ELISA stands for enzyme-linked immunosorbent assay.
The target is the same in assay [2]. As to the kind of experiment: PEPSCAN ELISA, linear peptide, 10 µg/ml.

B1: human monoclonal antibody CR57 (antibody, V domains shown)
VH: QVQLVQSGAEVKKPGSSVKVSCKASGGTFNRYTVNWVRQAPGQGLEWMGGIIPIFGTANYAQRFQGRLTITADESTSTAYMELSSLRSDDTAVYFCARENLDNSGTYYYFSGWFDPWGQGTLVTVSS
VL: QSALTQPRSVSGSPGQSVTISCTGTSSDIGGYNFVSWYQQHPGKAPKLMIYDATKRPSGVPDRFSGSKSGNTASLTISGLQAEDEADYYCCSYAGDYTPGVVFGGGTKLTVL
In the case of B1, the OD value in assay [1] turned out to be 364.

B2: human monoclonal antibody CRJA (antibody, V domains shown)
VH: EVQLLESGGGLVQPGGSLRLSCAASGFTFSNYAMSWVRQAPGKGLEWVSAISASGHSTYLADSVKGRFTISRDNSKNTLYLQMNSLRAEDTAVYYCAKDREVTMIVVLNGGFDYWGQGTRVTVSS
VL: EIVLTQSPATLSLSPGERATLACRASQTASRYLAWYQQKPGQAPRLLIYDTSNRATGIPARFSGSGSGTDFTLSISSLEPEDFAVYYCQQRFNWPWTFGQGTKVEFK
B2 showed an OD value in assay [1] of 1030. The molecule further came in with an OD in assay [2] of 96 OD.
